Data on ten molecules can be found in US20040253234A1 (Kyowa Kirin, published 2004).

In experiment [1] the target is T1, C-terminus-biotin labeled compound 1 (an N-terminus peptide of FGF-8; SEQ ID NO:15) (human, C-terminus-biotin labeled).
T1 construct: also called FGF-8 peptide
T1 peptide: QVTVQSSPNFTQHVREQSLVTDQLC
The experiment in a line: BIAcore 2000, C-terminus-biotin labeled FGF-8 peptide on SA chip, antibody as analyte, RU compared. The method, then: In order to examine the activity of various anti-FGF-8 CDR-grafted antibodies obtained in the item 5 of Example 3 to bind to FGF-8 in more detail, activities of various anti-FGF-8 CDR-grafted antibodies to bind to FGF-8 were measured and compared as follows by using BIAcore 2000 (manufactured by BIACORE). The CHO/DG44-derived anti-FGF-8 chimeric antibody KM3034 obtained in the item 3(1) of Example 1 was used as a positive control.
Hereinbelow, HBS-EP (manufactured by Pharmacia) was used as the buffer solution for dilution of samples and during the measurement. First, a sensor tip SA (manufactured by BIACORE) was set, and 5 μl of a C-terminus-biotin labeled compound 1 (an N-terminus peptide of FGF-8; SEQ ID NO:15) prepared to a solution of 0.05 μg/ml was added thereto at a flow rate of 20μl/minute. Thereafter, the tip surface was washed by adding 5 μl of 10 mmol/l Glycine-HCl buffer (pH 1.5) continuously twice. Immobilized amount of the FGF-8 peptide was 35 RU.
To the FGF-8 peptide immobilized flow cell, 60 μl of each antibody solution was added at a flow rate of 20 μl/minute, and then the dissociation reaction was monitored for 3 minutes. After the dissociation reaction, the tip surface was regenerated by adding 20 μl of 10 mmol/l Glycine-HCl buffer (pH 1.5) continuously twice. This cycle was carried out for antibody solutions of various concentrations (50 to 1.85 μg/ml), and a sensorgram at each concentration was obtained. The sensorgram of each antibody was made into a sensorgram of specific reaction by subtracting a sensorgram obtained using a chimeric antibody KM871 for GD3 [Cancer Immunol. Immunother., 36, 373 (1993)] as a negative control.
For orientation: SPR reads the build-up and loss of mass on a sensor chip optically.

Experiment [2] has as its target T2, BSA-compound 1 conjugate (human FGF-8 peptide Compound 1, SEQ ID NO:15, conjugated to bovine serum albumin) (human, conjugated to bovine serum albumin through SMCC).
T2 construct: The BSA carrier is not written as a chain
T2 peptide: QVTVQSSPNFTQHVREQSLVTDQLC
The experiment in a line: ELISA, plate-coated BSA-compound 1 conjugate, anti-human IgG-peroxidase detection; positive control. The method, then: The conjugate prepared in the above was dispensed at 50 μl/well into a 96 well plate for ELISA (manufactured by Greiner) at a concentration of 0.5 to 1.0 μg/ml and allowed to stand for adsorption overnight at 4° C. After washing with PBS, 1% BSA-containing PBS (BSA-PBS) was added at 100 μl/well and allowed for blocking of remaining active groups to react at room temperature for 1 hour. After washing each well with 0.05% Tween-containing PBS (Tween-PBS), culture supernatants of transformants or purified antibodies were added at 50 μl/well and allowed to react at room temperature for 1 hour. After the reaction, each well was washed with Tween-PBS and then a peroxidase-labeled goat anti-human IgG (H & L) antibody solution (manufactured by American Qualex) diluted 3,000 to 6,000-folds with BSA-PBS was added as a secondary antibody solution at 50 μl/well and allowed to react at room temperature for 1 hour. […] Thereafter, absorbance at 415 nm (OD415) was measured.
The activity of various anti-FGF-8 CDR-grafted antibodies obtained in the item 4 of Example 2 to bind to FGF-8 was measured by the ELISA described in the item 2(6) of Example 1. […]
In general terms: ELISA stands for enzyme-linked immunosorbent assay.

Experiment [3] has as its target T2, BSA-compound 1 conjugate (human FGF-8 …). The experiment in a line: ELISA, plate-coated BSA-compound 1 conjugate, anti-human IgG-peroxidase detection. The method, then:
The conjugate prepared in the above was dispensed at 50 μl/well into a 96 well plate for ELISA (manufactured by Greiner) at a concentration of 0.5 to 1.0 μg/ml and allowed to stand for adsorption overnight at 4° C. After washing with PBS, 1% BSA-containing PBS (BSA-PBS) was added at 100 μl/well and allowed for blocking of remaining active groups to react at room temperature for 1 hour. After washing each well with 0.05% Tween-containing PBS (Tween-PBS), culture supernatants of transformants or purified antibodies were added at 50 μl/well and allowed to react at room temperature for 1 hour. After the reaction, each well was washed with Tween-PBS and then a peroxidase-labeled goat anti-human IgG (H & L) antibody solution (manufactured by American Qualex) diluted 3,000 to 6,000-folds with BSA-PBS was added as a secondary antibody solution at 50 μl/well and allowed to react at room temperature for 1 hour. After the reaction and subsequent washing with Tween-PBS, an ABTS substrate solution [a solution prepared by dissolving 0.55 g of 2,2′-azinobis(3-ethylbenzothiazoline-6-sulfonic acid) ammonium in 1 L of 0.1 M citrate buffer (pH 4.2) and adding 1 μl/ml hydrogen peroxide just before use] was added at 50 μl/well for color development, and the reaction was stopped by adding 5% SDS solution at 50 µl/well. Thereafter, absorbance at 415 nm (OD415) was measured.
The activity of various anti-FGF-8 CDR-grafted antibodies obtained in the item 4 of Example 2 to bind to FGF-8 was measured by the ELISA described in the item 2(6) of Example 1. The YB2/0-derived anti-FGF-8 chimeric antibody KM3334 obtained in the item 3(2) of Example 1 was used as a positive control.

Experiment [4] deals with T3, FGF-8 (manufactured by R&D) (UniProt P55075-3 23-215, limits assumed).
T3 sequence (looked up): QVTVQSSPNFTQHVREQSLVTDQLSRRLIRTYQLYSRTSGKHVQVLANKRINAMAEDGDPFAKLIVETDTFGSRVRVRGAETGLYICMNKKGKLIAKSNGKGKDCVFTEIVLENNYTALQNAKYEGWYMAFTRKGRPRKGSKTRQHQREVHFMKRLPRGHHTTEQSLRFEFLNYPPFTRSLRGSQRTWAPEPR
The experiment in a line: cell-based or functional assay.

Numbering of substitutions follows the chain as printed.

B1: anti-FGF-8 CDR-grafted antibody HV0LV3-1/CHO (antibody, V domains shown)
VH: QVQLVQSGAEVKKPGASVKVSCKASGYTFTDYYLNWVRQAPGQGLEWMGEIDPGSDSIYYNENLEGRVTITADTSTSTAYMELSSLRSEDTAVYYCARYGYSRYDVRFVYWGQGTLVTVSS
VL: DVVMTQSPLSLPVTPGEPASISCRSSQSLVHSNGRTYLEWYLQKPGQSPQVLIYKVSNRISGVPDRFSGSGSGTDFTLKISRVEAEDVGVYFCFQGSHVPYTFGQGTKVEIK
notes: CHO/DG44-derived; also called KM8036
Consider B1, for which the binding result in experiment [1] is on record as “binds”.

B2: anti-FGF-8 chimeric antibody KM3334 (antibody, V domains shown)
VH: QVQLQQSGAEVARPGASVKLSCKASGYTFTDYYLNWVKQRSGQGLEWIGEIDPGSDSIYYNENLEGRATLTADKSSSTAYMQLNSLTSEDSAVYFCARYGYSRYDVRFVYWGQGTLVTVST
VL: B1 VL with V3L, S7T, T14S, P15L, E17D, P18Q, Q50K, V88L, Q105G, V109L
notes: Same expression vector pKANTEX1334 as KM3034 (human gamma1 / kappa constant regions), expressed in YB2/0 cells; also called KiM3334; YB2/0-derived anti-FGF-8 chimeric antibody
Take B2: the binding result in experiment [2] was “binds”.

B3: anti-FGF-8 chimeric antibody KM3034 (antibody, V domains shown)
VH: B2 VH
VL: B1 VL with V3L, S7T, T14S, P15L, E17D, P18Q, Q50K, V88L, Q105G, V109L
notes: Human chimeric antibody with human gamma1 CH and human kappa CL (vector pKANTEX1334, from pKANTEX93), expressed in CHO/DG44 cells; also called CHO/DG44-derived anti-FGF-8 chimeric antibody
For B3, the binding result in experiment [1] was “binds”.

B4: anti-FGF-8 CDR-grafted antibody HV0LV6 (antibody, V domains shown)
VH: B1 VH
VL: B1 VL with T14S, P15L, Q50K
notes: YB2/0-derived, vector pKANTEX1334HV0LV6 (from pKANTEX93, human constant regions); also called KM8037
Turning to B4, the binding result in experiment [3] was “binds”.

B5: anti-FGF-8 CDR-grafted antibody HV6LV6 (antibody, V domains shown)
VH: B1 VH with K12A, K13R, A40R, P41S, M48I, Y95F
VL: B1 VL with T14S, P15L, Q50K
notes: YB2/0-derived, vector pKANTEX1334HV6LV6 (from pKANTEX93, human constant regions)
Take B5: in experiment [3], the binding result is given as “binds”.

B6: anti-FGF-8 CDR-grafted antibody HV0LV0/CHO (antibody, V domains shown)
VH: B1 VH
VL: B1 VL with V2I, V51L, F92Y
notes: CHO/DG44-derived, vector pKANTEX1334HV0LV0
Turning to B6, in experiment [1], the binding result was “binds”.

B7: anti-FGF-8 CDR-grafted antibody HV0LV0 (antibody, V domains shown)
VH: B1 VH
VL: B1 VL with V2I, V51L, F92Y
notes: YB2/0-derived, vector pKANTEX1334HV0LV0 (from pKANTEX93, human constant regions)
On to B7, for which the binding result in experiment [3] is “binds”.

B8: anti-FGF-8 CDR-grafted antibody HV0LV3-3/CHO (antibody, V domains shown)
VH: B1 VH
VL: B1 VL with V2I, T14S, P15L, F92Y
Turning to B8, the “FGF-8 neutralization activity (FGF-8-dependent growth of SC-3 cells)” value in experiment [4] was ~0.5 fold of the activity of KM3034.

B9: anti-FGF-8 CDR-grafted antibody HV0LV4-3/CHO (antibody, V domains shown)
VH: B1 VH
VL: B1 VL with V2I, T14S, P15L
notes: CHO/DG44-derived; also called KM8035
On to B9, for which, in experiment [4], the “FGF-8 neutralization activity (FGF-8-dependent growth of SC-3 cells)” value was ~0.5 fold of the activity of KM3034. Moreover, the binding result in experiment [1] is given as “binds”.

B10: anti-FGF-8 CDR-grafted antibody HV0LV6/CHO (antibody, V domains shown)
VH: B1 VH
VL: B1 VL with T14S, P15L, Q50K
notes: CHO/DG44-derived, vector pKANTEX1334HV0LV6; also called KM8034
B10: the binding result in experiment [1] is given as “binds”.
